# Test results taken from patent publication US6875737 (TRUSTEES OF TUFTS COLLEGE, dated 2005).
# Numbered stars: 1 amine (or outer) side, 2 acyl side, 3 side chain; on linkers, the order of the positions; unused ones are H or OH. Square brackets hold non-standard residues; d marks the D form. Ends that are not written are not given here. * marks the point of attachment. εLys = N[C@@H](CCCCN[*:1])C(=O)[*:2]; Adipoyl = O=C(CCCCC(=O)[*:2])[*:1]; boroPro = OB(O)[C@@H]1CCCN1*
# B1: KbP2-Adipate (di(L-Lysine-L-boroProline)adipate) (peptide)
# peptide: Lys(Adipoyl)-[boroPro]
# modifications: also: dimer: two Lys-boroPro joined by adipoyl linker between lysine ε-amino groups
# B2: Myelin proteolipid protein peptide PLP 139-151 (HSLGKWLGHPDKF) (peptide)
# peptide: HSLGKWLGHPDKF
# B3: PLP-S-KbP (HSLGKWLGHPDKFAAAAAA-εKbP; Lys-boroPro linked to myelin proteolipid protein peptide 139-151) (peptide)
# peptide: HSLGKWLGHPDKFAAAAAA-{εLys-boroPro}
# Columns and labels:
# Experiment in all cases: cell-based or functional assay
# CD26 on H9 T cells = CD26 on H9 T cells (UniProt P27487 1-766, limits assumed)
# [1] = molecular target: T1, T cell receptor of the PLP 139-151 specific T cell clone 5B8.G8.E6.H12
# [2] = molecular target: T cell receptor of the PLP 139-151 specific T cell clone SPL.C1.H2.F2
# [3] = molecular target: T2, T cell receptor of the PLP 139-151 specific T cell clone 4E3.B11.D9.H10.H6
# [4] = molecular target: T cell receptor of the PLP 139-151 specific T cell clone 2E5.G10.G5.E5
# [5] = molecular target: T cell receptor of the PLP 139-151 specific T cell clone 7A5.F10.G11
# [6] = molecular target: T1, T cell receptor of the PLP 139-151 …; remark: listed apart in the source
# [7] = molecular target: T2, T cell receptor of the PLP 139-151 …; remark: listed apart in the source
# CD26 on H9 T cells, sequence (P27487 whole entry): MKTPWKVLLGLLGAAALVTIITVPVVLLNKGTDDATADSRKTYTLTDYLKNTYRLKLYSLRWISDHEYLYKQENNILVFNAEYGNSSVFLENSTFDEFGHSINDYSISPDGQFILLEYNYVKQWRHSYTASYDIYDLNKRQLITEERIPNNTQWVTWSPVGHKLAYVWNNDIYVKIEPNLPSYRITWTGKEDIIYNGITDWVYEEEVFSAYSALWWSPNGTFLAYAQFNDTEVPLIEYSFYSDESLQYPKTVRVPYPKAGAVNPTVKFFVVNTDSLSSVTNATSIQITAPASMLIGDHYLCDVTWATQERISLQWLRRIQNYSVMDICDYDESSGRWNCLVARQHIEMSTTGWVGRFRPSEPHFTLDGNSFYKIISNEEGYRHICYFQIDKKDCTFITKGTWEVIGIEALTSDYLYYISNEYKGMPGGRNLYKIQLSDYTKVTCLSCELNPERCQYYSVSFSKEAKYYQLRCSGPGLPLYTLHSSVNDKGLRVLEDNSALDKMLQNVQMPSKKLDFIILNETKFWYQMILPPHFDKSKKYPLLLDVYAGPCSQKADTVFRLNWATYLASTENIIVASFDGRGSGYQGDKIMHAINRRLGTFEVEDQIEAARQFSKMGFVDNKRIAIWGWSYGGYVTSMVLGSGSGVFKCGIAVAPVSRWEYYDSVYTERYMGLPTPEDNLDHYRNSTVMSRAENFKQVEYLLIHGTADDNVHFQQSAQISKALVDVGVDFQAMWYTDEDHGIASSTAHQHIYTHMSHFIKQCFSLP
Binder,"proliferation (thymidine uptake), antigen dose 1 µM [1]","proliferation (thymidine uptake), antigen dose 10 µM [1]","proliferation (thymidine uptake), antigen dose 100 µM [1]","proliferation (thymidine uptake), antigen dose 0.1 µM [2]","proliferation (thymidine uptake), antigen dose 1 µM [2]","proliferation (thymidine uptake), antigen dose 10 µM [2]","proliferation (thymidine uptake), antigen dose 100 µM [2]","proliferation (thymidine uptake), antigen dose 0.1 µM [3]","proliferation (thymidine uptake), antigen dose 1 µM [3]","proliferation (thymidine uptake), antigen dose 10 µM [3]","proliferation (thymidine uptake), antigen dose 100 µM [3]","proliferation (thymidine uptake), antigen dose 0.1 µM [4]","proliferation (thymidine uptake), antigen dose 1 µM [4]","proliferation (thymidine uptake), antigen dose 10 µM [4]","proliferation (thymidine uptake), antigen dose 100 µM [4]","proliferation (thymidine uptake), antigen dose 0.1 µM [5]","proliferation (thymidine uptake), antigen dose 1 µM [5]","proliferation (thymidine uptake), antigen dose 10 µM [5]","proliferation (thymidine uptake), antigen dose 100 µM [5]",further results
B1,–,–,–,–,–,–,–,–,–,–,–,–,–,–,–,–,–,–,–,augmentation of IL-2 production by anti-CD3 (OKT3) stimulated H9 cells (CD26 on H9 T cells): ≤ 4 fold
B2,349 3H counts,9180 3H counts,41100 3H counts,423 3H counts,107 3H counts,400 3H counts,809 3H counts,318 3H counts,125 3H counts,534 3H counts,1930 3H counts,101 3H counts,288 3H counts,70 3H counts,1510 3H counts,117 3H counts,222 3H counts,406 3H counts,2320 3H counts,"proliferation (thymidine uptake), antigen dose 0.1 µM [1]: 106 3H counts"
B3,22000 3H counts,53600 3H counts,34700 3H counts,681 3H counts,2530 3H counts,17500 3H counts,31600 3H counts,3690 3H counts,8580 3H counts,15800 3H counts,17600 3H counts,175 3H counts,7740 3H counts,26400 3H counts,36700 3H counts,187 3H counts,8200 3H counts,35500 3H counts,44000 3H counts,enhancement of the proliferative response against PLP 139-151 [6]: ~200 fold; enhancement of the proliferative response against PLP 139-151 [7]: ~2000 fold
